Results as given in article PMC10269845, “Hijacking of Host Plasminogen by Mesomycoplasma (Mycoplasma) hyopneumoniae via GAPDH: an Important Virulence Mechanism To Promote Adhesion and Extracellular Matrix Degradation” (Microbiology Spectrum, 2023).

Target: plasminogen (UniProt P00747 20-810)
Test: SPR
Conditions: both partners purified

Sequence of plasminogen (P00747 20-810): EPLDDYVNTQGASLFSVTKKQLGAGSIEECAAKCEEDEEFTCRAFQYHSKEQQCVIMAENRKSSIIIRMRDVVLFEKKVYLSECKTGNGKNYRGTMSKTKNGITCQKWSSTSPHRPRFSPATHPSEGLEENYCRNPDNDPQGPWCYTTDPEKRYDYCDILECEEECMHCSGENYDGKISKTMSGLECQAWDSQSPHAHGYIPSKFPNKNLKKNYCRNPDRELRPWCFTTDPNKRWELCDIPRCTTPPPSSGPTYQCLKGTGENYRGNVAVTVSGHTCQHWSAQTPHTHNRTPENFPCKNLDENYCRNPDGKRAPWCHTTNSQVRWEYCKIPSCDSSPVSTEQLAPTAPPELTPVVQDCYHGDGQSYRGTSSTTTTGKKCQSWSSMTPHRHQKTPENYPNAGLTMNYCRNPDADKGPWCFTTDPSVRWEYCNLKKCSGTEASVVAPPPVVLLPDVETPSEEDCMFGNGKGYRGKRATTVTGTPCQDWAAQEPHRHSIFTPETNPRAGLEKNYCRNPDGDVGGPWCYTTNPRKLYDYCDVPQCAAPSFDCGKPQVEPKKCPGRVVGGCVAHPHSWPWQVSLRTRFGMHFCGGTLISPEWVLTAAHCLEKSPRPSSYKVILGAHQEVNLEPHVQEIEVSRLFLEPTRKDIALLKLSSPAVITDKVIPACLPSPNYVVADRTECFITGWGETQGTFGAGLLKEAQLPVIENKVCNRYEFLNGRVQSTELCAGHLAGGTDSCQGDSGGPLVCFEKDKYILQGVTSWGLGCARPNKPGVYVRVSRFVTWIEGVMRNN

B1: Recombinant glyceraldehyde-3-phosphate dehydrogenase (GAPDH) of Mesomycoplasma (Mycoplasma) hyopneumoniae strain 168 (enzyme)
chain: MKKIAINGFGRIGRLALRRLFEVNDENLQVVAINDLTDASVLAHLFKYDSAHGKFNGEVEVLKDNGKNYLKIKGQKILVLSERDPKSLPWGQLGIDLVVECTGFFASKSGASQHLEAGAKKVIISAPAGNDVKTIVYNVNCDTITEDDRILSSASCTTNALAPLVNALDKEFGINHGFMTTIHAYTADQRLQDAPHGDLRRARAAGVNLVPSSTGAAKAIGLVVPSLTGKLDGIAIRVPVITGSFVDLSVELKSNPSIEEINQKMREYANESFAYCDEPIVSSDIIGDRHGSIFDATLTKYIEANGKRLYKLYTWYDNEYSFVSQFVRVIRDFVQK
notes: also called rGAPDH; source: E. coli BL21(DE3), pET-32a, purified (Ni resin FF)
For B1, the Kd was 376 nM.
